Experiments:
delta (DOP) (h) (human) = delta (DOP) (h) (human) (UniProt P41143); experiment: radioligand displacement, reference compound of the assay (Ki Ref)
mu (MOP) (h) (human) = mu (MOP) (h) (human) (UniProt P35372); experiment: as above

Ki (delta (DOP) (h) (human)) | Ki (mu (MOP) (h) (human)) | Substance
1.2 nM |  | DPDPE (peptide)
 | 0.37 nM | DAMGO (peptide)

From patent publication US12427210B2, “Compounds comprising a fibroblast activation protein ligand and use thereof” (priority 2019, dated 2025)
